Patent publication CN116284426A (SUNSHINE GUOJIAN PHARMACEUTICAL SHANGHAI CO LTD, dated 2023)

Key:
[1] = molecular target: T1, GUCY2C-His蛋白 (human GUCY2C extracellular region with C-terminal 6xHis) (human, UniProt P25092 24-430); experiment: ELISA, GUCY2C-His coated, anti-human IgG Fc HRP
T1 construct: extracellular domain; Made in HEK-293F with an unspecified N-terminal signal peptide; also called 人GUCY2C-His蛋白

[2] = molecular target: T2, GUCY2C-Fc蛋白 (human GUCY2C extracellular region fused to human IgG1 Fc) (human, UniProt P25092 24-430); experiment: ELISA, GUCY2C-Fc coated, anti-human IgG Fab HRP
T2 construct: extracellular domain; Made in HEK-293F with an unspecified N-terminal signal peptide; also called 人GUCY2C-Fc蛋白; not shown: human IgG1 Fc at the C-terminus in place of the 6xHis tag
T2 sequence (P25092 24-430 limits assumed): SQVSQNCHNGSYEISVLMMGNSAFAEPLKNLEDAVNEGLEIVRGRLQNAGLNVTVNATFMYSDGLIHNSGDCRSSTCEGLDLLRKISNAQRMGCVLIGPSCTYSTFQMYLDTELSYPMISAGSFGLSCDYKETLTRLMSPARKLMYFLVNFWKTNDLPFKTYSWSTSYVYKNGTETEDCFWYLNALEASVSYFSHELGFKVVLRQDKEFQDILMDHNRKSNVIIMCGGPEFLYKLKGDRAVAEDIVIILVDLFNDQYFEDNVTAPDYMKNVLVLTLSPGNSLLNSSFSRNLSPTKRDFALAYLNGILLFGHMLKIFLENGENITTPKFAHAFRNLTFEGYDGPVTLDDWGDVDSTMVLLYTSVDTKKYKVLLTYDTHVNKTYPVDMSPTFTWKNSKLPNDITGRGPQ

[3] = molecular target: T3, GUCY2C on tumour cells (CW2, CW2-GCC#1, T84) (human, UniProt P25092 24-1073); experiment: flow cytometry on CW2-GCC#1 cells (GUCY2C-overexpressing CW2)
T3 construct: whole, on cells; Only CW2-GCC#1 is expressly said to express GUCY2C; also called 鸟苷酸环化酶2C; 人结肠癌细胞CW2
T3 sequence (P25092 24-1073): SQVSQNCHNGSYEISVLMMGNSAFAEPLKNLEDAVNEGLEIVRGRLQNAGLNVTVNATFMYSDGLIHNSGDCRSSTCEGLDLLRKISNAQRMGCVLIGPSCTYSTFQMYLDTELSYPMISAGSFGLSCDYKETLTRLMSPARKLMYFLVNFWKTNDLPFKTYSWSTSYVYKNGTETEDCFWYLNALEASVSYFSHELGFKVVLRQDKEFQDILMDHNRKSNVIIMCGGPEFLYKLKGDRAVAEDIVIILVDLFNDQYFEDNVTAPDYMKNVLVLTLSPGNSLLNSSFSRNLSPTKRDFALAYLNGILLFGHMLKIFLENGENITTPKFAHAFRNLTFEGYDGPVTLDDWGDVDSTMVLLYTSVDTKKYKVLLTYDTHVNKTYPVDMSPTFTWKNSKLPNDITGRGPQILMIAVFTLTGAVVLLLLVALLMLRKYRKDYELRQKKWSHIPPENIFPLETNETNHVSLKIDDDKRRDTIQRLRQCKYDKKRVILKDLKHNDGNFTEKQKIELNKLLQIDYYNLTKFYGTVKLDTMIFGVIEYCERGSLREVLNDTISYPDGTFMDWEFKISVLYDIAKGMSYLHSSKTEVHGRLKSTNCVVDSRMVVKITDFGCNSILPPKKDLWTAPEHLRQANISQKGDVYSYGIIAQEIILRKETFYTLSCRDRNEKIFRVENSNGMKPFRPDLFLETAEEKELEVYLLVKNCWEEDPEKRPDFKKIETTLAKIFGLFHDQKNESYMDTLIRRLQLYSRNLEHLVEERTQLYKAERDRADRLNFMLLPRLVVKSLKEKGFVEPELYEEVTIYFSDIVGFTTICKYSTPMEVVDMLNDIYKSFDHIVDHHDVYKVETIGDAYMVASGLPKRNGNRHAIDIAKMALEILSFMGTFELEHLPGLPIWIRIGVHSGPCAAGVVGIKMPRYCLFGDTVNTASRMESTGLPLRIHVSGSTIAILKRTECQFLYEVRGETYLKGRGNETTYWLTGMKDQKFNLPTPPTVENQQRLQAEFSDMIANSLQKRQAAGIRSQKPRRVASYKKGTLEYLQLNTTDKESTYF

[4] = molecular target: T1, GUCY2C-His蛋白 (human GUCY2C …); experiment: ELISA, GUCY2C-His coated, anti-human IgG Fab HRP (Table 9)
[5] = molecular target: T2, GUCY2C-Fc蛋白 (human GUCY2C extracellular …); experiment: ELISA, GUCY2C-Fc coated, anti-human IgG Fab HRP (Table 11)
[6] = molecular target: T2, GUCY2C-Fc蛋白 (human GUCY2C extracellular …); experiment: ELISA, GUCY2C-Fc coated, anti-human IgG Fab HRP (Table 18)
[7] = molecular target: T1, GUCY2C-His蛋白 (human GUCY2C …); experiment: ELISA, GUCY2C-His coated, anti-human IgG Fab HRP (Table 17)

T1 sequence (P25092 other isoform, or with tags, fused parts or gaps): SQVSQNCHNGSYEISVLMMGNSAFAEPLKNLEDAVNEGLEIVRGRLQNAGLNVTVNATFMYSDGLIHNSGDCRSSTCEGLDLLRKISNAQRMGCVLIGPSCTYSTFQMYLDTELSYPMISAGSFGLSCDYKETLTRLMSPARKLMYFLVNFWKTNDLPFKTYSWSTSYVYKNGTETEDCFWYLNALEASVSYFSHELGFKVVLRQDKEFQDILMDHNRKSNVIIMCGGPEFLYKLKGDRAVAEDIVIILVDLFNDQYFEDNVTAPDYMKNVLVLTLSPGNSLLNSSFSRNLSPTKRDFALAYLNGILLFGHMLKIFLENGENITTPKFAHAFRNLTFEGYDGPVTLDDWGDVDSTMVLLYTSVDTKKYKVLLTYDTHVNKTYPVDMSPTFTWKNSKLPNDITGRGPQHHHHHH

EC50 [1]: 0.468 nM | EC50 [2]: 0.452 nM | EC50 [3]: 96.3 nM | EC50 [4]: 0.24 nM | EC50 [5]: 0.23 nM | EC50 [6]: 0.759 nM | EC50 [7]: 0.244 nM
B1: 32H2-Hu (antibody, V domains shown)
VH: EVQLVESGGGLVKPGGSLRLSCAASGFSFRTYAMSWVRQAPGKSLEWVATISSGSSYIYYPDSVKGRFTVSRDNAKNSLYLQMNSLRAEDTAVYYCTCYRMETFEYWGQGTLVTVSS
VL: DVVMTQSPLSLPVTLGQPASISCRSSQSLVYNNGNTYLHWYQQRPGQSPRLLIYKVSNRFSGVPDRFSGSGSGTDFTLKISRVEAEDVGVYFCSQSTHVPLTFGQGTKVEIKR
